From article PMC10397247 come the findings set out here.

Holding throughout (experiment): two-hybrid library CCNG1;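 note: natural log of median RNA to DNA barcode read ratio; higher means stronger binding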
For one experiment, the target named is T1, 4H1338-bN.
T1 chain: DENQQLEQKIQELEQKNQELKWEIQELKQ

Another experiment has as its target T2, 4H1348-bN.
T2 chain: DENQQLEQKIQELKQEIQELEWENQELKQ

Another experiment addresses T3, 4H1373-bN.
T3 chain: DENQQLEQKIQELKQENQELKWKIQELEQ

The target in another experiment is T4, 4H1449-bN.
T4 chain: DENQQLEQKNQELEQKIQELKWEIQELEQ

A further experiment has as its target T5, 4H1544-bN.
T5 chain: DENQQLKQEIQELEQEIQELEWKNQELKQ

Another experiment deals with T6, 4H1710-bN.
T6 chain: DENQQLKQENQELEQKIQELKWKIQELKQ

In another experiment the target is T7, 4H1899-bN.
T7 chain: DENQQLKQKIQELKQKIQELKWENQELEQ

The next experiment addresses T8, 4H1985-bN.
T8 chain: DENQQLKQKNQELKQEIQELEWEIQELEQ

In a further experiment the target is T9, 4H2702-bA.
T9 chain: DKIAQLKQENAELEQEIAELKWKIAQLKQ

The next experiment concerns the target T10, 4H3613-bN.
T10 chain: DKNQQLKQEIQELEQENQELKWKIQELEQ

Another experiment has as its target T11, 4H3628-bN.
T11 chain: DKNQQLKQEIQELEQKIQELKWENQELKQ

Another experiment addresses T12, 4H3817-bN.
T12 chain: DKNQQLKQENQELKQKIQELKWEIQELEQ

The target in another experiment is T13, 4H3858-bN.
T13 chain: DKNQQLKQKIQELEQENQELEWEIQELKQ

A further experiment concerns the target T14, 4H3974-bN.
T14 chain: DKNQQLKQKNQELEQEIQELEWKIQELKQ

Another experiment concerns the target T15, 4H570-bN.
T15 chain: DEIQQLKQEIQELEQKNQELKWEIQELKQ

Another experiment has as its target T16, 4H850-bN.
T16 chain: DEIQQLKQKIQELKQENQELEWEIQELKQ

The target in the next experiment is T17, 4H145-bA.
T17 chain: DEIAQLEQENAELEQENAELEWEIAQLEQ
The following applies: mean of both orientations.

Another experiment concerns the target T18, 4H2619-bA.
T18 chain: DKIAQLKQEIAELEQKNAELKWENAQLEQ

In another experiment the target is T19, 4H2691-bA.
T19 chain: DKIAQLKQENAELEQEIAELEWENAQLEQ

The target of a further experiment is T20, 4H3070-bA.
T20 chain: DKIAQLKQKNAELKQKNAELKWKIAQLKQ
The following applies: mean of both orientations.

A further experiment deals with T21, 4H342-bA.
T21 chain: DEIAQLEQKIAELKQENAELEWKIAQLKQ

Another experiment concerns the target T22, 4H3632-bA.
T22 chain: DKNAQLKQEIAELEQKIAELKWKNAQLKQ

In another experiment the target is T23, 4H496-bA.
T23 chain: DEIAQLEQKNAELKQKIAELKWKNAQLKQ

For the molecule DENQQLEQKIQELEQKNQELKWEIQELKQ [4H1338-bN], the interaction score was 0.0248 in the experiment with 4H1338-bN; -1.29 with 4H1348-bN; -1.16 with 4H1373-bN; -0.847 with 4H1449-bN; 0.114 with 4H1544-bN; -0.345 in the experiment with 4H1710-bN. Also, the interaction score with 4H1899-bN was -2.73; with 4H1985-bN, -0.88; with 4H2702-bA, -2.23; with 4H3613-bN, -0.479; with 4H3628-bN, -0.229; with 4H3817-bN, -0.326. Besides, the interaction score in the experiment with 4H3858-bN is 1.37; in the experiment with 4H3974-bN, -0.674; with 4H570-bN it was -0.567; with 4H850-bN it was 0.8.

As to DEIAQLEQENAELEQENAELEWEIAQLEQ [4H145-bA], the interaction score is -0.795 with 4H145-bA; -0.672 with 4H2619-bA; -0.624 with 4H2691-bA; 2.5 with 4H3070-bA; -1.12 with 4H342-bA; -1.06 with 4H3632-bA. This molecule also displayed an interaction score with 4H496-bA of -1.06.
